Our source for the protein stability index values is the supplement of paper PMC10567573.

The labels stand for the following.
B1: ZNF263 (parent)
chain: RTHTGEKPYKCTLCGENFSHRSNL
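Note: lentivirally expressed fusions sorted by FACS into six bins by GFP to DsRed ratio, PSI derived from sequencing read proportions per bin multiplied by bin number.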

The data set covers variants of B1. Kind of data set: protein stability index of a GFP-peptide fusion (GPS, HEK-293T) (PSI 1-6); higher = more stable. The conditions noted are these: c terminus: a fixed tail appended.
RTHTGEKHYKCTLCGENFSHRSNL: the protein stability index stood at 2.06.
Turning to RTHTGEKSYKCTLCGENFSHRSNL, the protein stability index amounted to 1.78.
The same measure for RTHTGEKFYKCTLCGENFSHRSNL: 1.38; for RTHTGEKYYKCTLCGENFSHRSNL: 1.64.
Then RTHTGEKWYKCTLCGENFSHRSNL, with 1.46; and RTHTGEKMYKCTLCGENFSHRSNL, with 2.3; and RTHTGEKAYKCTLCGENFSHRSNL, with 2.1.
For the variant RTHTGEKIYKCTLCGENFSHRSNL, the protein stability index was determined as 1.63.
Then RTHTGEKCYKCTLCGENFSHRSNL, with 2.51; and RTHTGEKNYKCTLCGENFSHRSNL, with 1.96; and RTHTGEKVYKCTLCGENFSHRSNL, with 1.91.
The same measure for RTHTGEKRYKCTLCGENFSHRSNL: 1.99; for RTHTGEKQYKCTLCGENFSHRSNL: 2.09.
The same measure for RTHTGEKKYKCTLCGENFSHRSNL: 2.06; for RTHTGEKLYKCTLCGENFSHRSNL: 1.98; for RTHTGEKDYKCTLCGENFSHRSNL: 2.44.
For RTHTGEKGYKCTLCGENFSHRSNL, the protein stability index was 2.44.
The same measure for RTHTGEKEYKCTLCGENFSHRSNL: 2.82; for RTHTGEKTYKCTLCGENFSHRSNL: 1.9; for RTHTGKKPYKCTLCGENFSHRSNL: 1.9.
Then RTHTGTKPYKCTLCGENFSHRSNL, with 2.26; and RTHTGIKPYKCTLCGENFSHRSNL, with 1.69; and RTHTGYKPYKCTLCGENFSHRSNL, with 2.64.
The same measure for RTHTGDKPYKCTLCGENFSHRSNL: 2.37; for RTHTGWKPYKCTLCGENFSHRSNL: 1.58.
Turning to RTHTGRKPYKCTLCGENFSHRSNL, the protein stability index was determined as 2.34.
Then RTHTGGKPYKCTLCGENFSHRSNL, with 1.88; and RTHTGHKPYKCTLCGENFSHRSNL, with 1.71; and RTHTGMKPYKCTLCGENFSHRSNL, with 2.37.
Then RTHTGSKPYKCTLCGENFSHRSNL, with 2.39; and RTHTGCKPYKCTLCGENFSHRSNL, with 2.44.
The same measure for RTHTGVKPYKCTLCGENFSHRSNL: 2.08; for RTHTGFKPYKCTLCGENFSHRSNL: 1.62; for RTHTGAKPYKCTLCGENFSHRSNL: 2.15.
Turning to RTHTGNKPYKCTLCGENFSHRSNL, the protein stability index came to 1.67.
As for RTHTGQKPYKCTLCGENFSHRSNL, the protein stability index was 2.34.
As to RTHTGPKPYKCTLCGENFSHRSNL, the protein stability index was 2.68.
The same measure for RTHTGLKPYKCTLCGENFSHRSNL: 2.18; for RTHTGEKPKKCTLCGENFSHRSNL: 2.45; for RTHTGEKPRKCTLCGENFSHRSNL: 2.14.
Then RTHTGEKPWKCTLCGENFSHRSNL, with 1.72; and RTHTGEKPTKCTLCGENFSHRSNL, with 2.33; and RTHTGEKPIKCTLCGENFSHRSNL, with 1.52.
On to RTHTGEKPSKCTLCGENFSHRSNL, for which the protein stability index was 2.38.
The same measure for RTHTGEKPAKCTLCGENFSHRSNL: 2.15.
The same measure for RTHTGEKPNKCTLCGENFSHRSNL: 2.1.
The same measure for RTHTGEKPHKCTLCGENFSHRSNL: 2.61; for RTHTGEKPQKCTLCGENFSHRSNL: 1.84.
Take RTHTGEKPPKCTLCGENFSHRSNL: the protein stability index worked out at 2.04.
Then RTHTGEKPFKCTLCGENFSHRSNL, with 1.96; and RTHTGEKPLKCTLCGENFSHRSNL, with 1.79; and RTHTGEKPVKCTLCGENFSHRSNL, with 2.33.
The same measure for RTHTGEKPDKCTLCGENFSHRSNL: 2.44.
Then RTHTGEKPGKCTLCGENFSHRSNL, with 1.6.
Consider RTHTGEKPMKCTLCGENFSHRSNL, for which the protein stability index was 1.69.
The same measure for RTHTGEKPEKCTLCGENFSHRSNL: 2.4; for RTHTGEKPCKCTLCGENFSHRSNL: 3.37.
For the variant RTHTGEKPYKNTLCGENFSHRSNL, the protein stability index was determined as 3.16.
The same measure for RTHTGEKPYKRTLCGENFSHRSNL: 2.81.
The same measure for RTHTGEKPYKQTLCGENFSHRSNL: 3.24; for RTHTGEKPYKDTLCGENFSHRSNL: 3.87; for RTHTGEKPYKPTLCGENFSHRSNL: 3.02.
Then RTHTGEKPYKMTLCGENFSHRSNL, with 2.78.
As for RTHTGEKPYKETLCGENFSHRSNL, the protein stability index came out at 3.97.
Then RTHTGEKPYKATLCGENFSHRSNL, with 2.67; and RTHTGEKPYKKTLCGENFSHRSNL, with 2.92.
Then RTHTGEKPYKFTLCGENFSHRSNL, with 2.06; and RTHTGEKPYKGTLCGENFSHRSNL, with 3.59.
Turning to RTHTGEKPYKITLCGENFSHRSNL, the protein stability index is 2.56.
The same measure for RTHTGEKPYKYTLCGENFSHRSNL: 2.42; for RTHTGEKPYKVTLCGENFSHRSNL: 2.51.
Then RTHTGEKPYKSTLCGENFSHRSNL, with 3.36; and RTHTGEKPYKWTLCGENFSHRSNL, with 2.04.
The same measure for RTHTGEKPYKTTLCGENFSHRSNL: 2.91; for RTHTGEKPYKHTLCGENFSHRSNL: 3.13.
As for RTHTGEKPYKLTLCGENFSHRSNL, the protein stability index came to 2.9.
Then RTHTGEKPYKCTNCGENFSHRSNL, with 3.03; and RTHTGEKPYKCTKCGENFSHRSNL, with 2.18; and RTHTGEKPYKCTICGENFSHRSNL, with 2.44.
For RTHTGEKPYKCTTCGENFSHRSNL, the protein stability index was found to be 2.57.
Consider RTHTGEKPYKCTMCGENFSHRSNL, for which the protein stability index was 1.76.
The same measure for RTHTGEKPYKCTDCGENFSHRSNL: 3.21; for RTHTGEKPYKCTSCGENFSHRSNL: 2.64.
On to RTHTGEKPYKCTCCGENFSHRSNL, for which the protein stability index was determined as 2.81.
The same measure for RTHTGEKPYKCTYCGENFSHRSNL: 2.04; for RTHTGEKPYKCTACGENFSHRSNL: 2.18; for RTHTGEKPYKCTWCGENFSHRSNL: 1.88.
As for RTHTGEKPYKCTFCGENFSHRSNL, the protein stability index was found to be 2.2.
On to RTHTGEKPYKCTGCGENFSHRSNL, for which the protein stability index was 2.42.
Then RTHTGEKPYKCTHCGENFSHRSNL, with 2.06.
Then RTHTGEKPYKCTECGENFSHRSNL, with 3.3; and RTHTGEKPYKCTVCGENFSHRSNL, with 2.14; and RTHTGEKPYKCTRCGENFSHRSNL, with 1.56.
The same measure for RTHTGEKPYKCTQCGENFSHRSNL: 2.16.
